{"source": "patent US20190225692A1", "about": "(JUNO THERAPEUTICS, published 2019)", "target": "T1, HLA-A2/E6 (29-38) tetramer (human; HPV 16)", "T1 construct": "also called E6(29-38) peptide-MHC tetramer; E6(29-38)-loaded tetramer", "test": "tetramer staining of clonal T cell line, flow cytometry", "data": [{"binder": "TCR 10 (native, expressed by clonal T cell line) (TCR, V domains shown) V domain 1: RKEVEQDPGPFNVPEGATVAFNCTYSNSASQSFFWYRQDCRKEPKLLMSVYSSGNEDGRFTAQLNRASQYISLLIRDSKLSDSATYLCVVNFPSRGAGGTSYGKLTFGQGTILTVHP V domain 2: DVKVTQSSRYLVKRTGEKVFLECVQDMDHENMFWYRQDPGLGLRLIYFSYDVKMKEKGDIPEGYSVSREKKERFSLILESASTNQTSMYLCASSLSLTGNYGYTFGSGTRLTVVE", "values": [{"measurement": "binding result", "value": "binds"}]}]}
